Experiments:
coronavirus = settings: infected with a coronavirus; 37% with placebo; cited from earlier work
rhinoviruses = settings: clinical trials; cited from earlier work
transfected 10B H7 clone = type: cell-based, mouse
mouse parental BTG cells = type: cell-based
human Wish cells = type: cell-based

Molecule | volunteers developing the symptoms of a cold (coronavirus) [%] | protection of volunteers infected with different rhinoviruses (rhinoviruses) [%] | Antiviral activities of interferon preparations tested on 10BH7 (transfected 10B H7 clone) | antiviral activity (in words) (transfected 10B H7 clone) | Antiviral activities of interferon preparations tested on BTG (mouse parental BTG cells) | antiviral activity (in words) (mouse parental BTG cells) | Antiviral activities of interferon preparations tested on WISH (human Wish cells)
alpha interferon | 6 | 100 | – | – | – | – | –
Human gamma IFN: human gamma interferon, recognized by a different receptor (protein, UniProt P01579 24-161, looked up) Interferon gamma: QDPYVKEAENLKKYFNAGHSDVADNGTLFLGILKNWKEESDRKIMQSQIVSFYFKLFKNFKDDQSIQKSVETIKEDMNVKFFNSNKKKRDDFEKLTNYSVTDLNVQRKAIHELIQVMAELSPAAKTGKRKRSQMLFRG | – | – | < 1 × 10^3 units/ml | no antiviral activity | < 1 × 10^3 units/ml | no antiviral activity | 20 × 10^6 units/ml

Reference: patent publication US5889151A (priority 1989, dated 1999)
